T1: human EpCAM extracellular domain with C-terminal His tag (Novoprotein #C339) (human, UniProt P16422 24-265)
T1 construct: extracellular domain; Bought protein
T1 sequence (looked up): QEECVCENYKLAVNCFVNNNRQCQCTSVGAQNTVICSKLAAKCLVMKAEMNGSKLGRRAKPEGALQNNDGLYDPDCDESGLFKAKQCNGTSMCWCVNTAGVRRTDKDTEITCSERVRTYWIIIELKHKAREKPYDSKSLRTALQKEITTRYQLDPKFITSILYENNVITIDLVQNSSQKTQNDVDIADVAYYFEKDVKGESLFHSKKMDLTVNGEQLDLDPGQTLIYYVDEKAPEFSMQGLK

T2: human EpCAM on cells (CHO-K1 cells transfected with human EpCAM; EpCAM+ tumour cell lines) (human, UniProt P16422 24-314)
T2 construct: whole, on cells; also called CHO-K1-huEpCAM cells; cell-surface EpCAM
T2 sequence (looked up): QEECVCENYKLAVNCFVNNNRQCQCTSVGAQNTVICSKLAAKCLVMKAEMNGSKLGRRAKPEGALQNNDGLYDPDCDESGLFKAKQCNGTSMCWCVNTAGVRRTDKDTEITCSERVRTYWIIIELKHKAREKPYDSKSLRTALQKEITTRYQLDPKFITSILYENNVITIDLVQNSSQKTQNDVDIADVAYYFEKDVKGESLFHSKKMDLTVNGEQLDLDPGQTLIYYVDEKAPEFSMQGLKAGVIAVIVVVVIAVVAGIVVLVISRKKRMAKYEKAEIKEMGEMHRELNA


What was measured:
[1] = target: T3, human CD47 extracellular domain with C-terminal 6×His tag (human, UniProt Q08722 19-139, limits assumed); test: ELISA, plate coated with recombinant huCD47
T3 construct: extracellular domain; Made in Expi293F cells (section 5.4.1); also called recombinant CD47; huCD47

[2] = target: T1, human EpCAM extracellular domain with …; test: ELISA, plate coated with human EpCAM
[3] = target: T2, human EpCAM on cells (CHO-K1 cells …); test: flow cytometry on MCF-7, Caco-2 and A431 cells
[4] = target: T1, human EpCAM extracellular domain with …; test: ELISA on human EpCAM
[5] = target: T2, human EpCAM on cells (CHO-K1 cells …); test: flow cytometry on CHO-K1 cells transfected with human EpCAM
[6] = target: T4, CD47 expressed on human red blood cells (human, UniProt Q08722 19-323); test: flow cytometry on human red blood cells
T4 construct: whole, on cells; also called RBCs; RBC
Method: The RBC binding assay was performed by spinning down fresh human whole blood at 200 g for 10 minutes. Collected RBCs were washed twice with PBS and counted using flow cytometry. 1×10⁶ cells were dispensed into each well of a 96 well culture plate. Serially diluted anti-CD47 antibodies were added and incubated for 1 hour at 4° C. Cells were washed with FACS buffer (PBS+2% FBS) twice. […] Cells were washed twice and resuspended in 200 μl of FACS buffer and analyzed by flow cytometry.

binding result [4] | binding result [5] | Binder | also measured
binds | binds | mAb-30 (chimeric anti-EpCAM antibody) (antibody, V domains shown) VH: EVQLQQSGPELVKPGASVKISCKASGYTFTDYYMSWVKQSHGRSLEWIGEINPDNGDTSHNQKFKGKATMTVDKSSGTGNMEIRSLTSEDAGIYYCTSYFSYWGQGTLVTVSA VL: DVLMTQSPLSLPVSLGDQASISCRSSQSIVDSDGSTYLEWYLQKPGQSPKLLIYKVSNRFSGVPDRFSGSGSGTDFTLKISGVEAEDLGVYYCFQGSHVPYTFGGGTKLEIK | 
binds |  | mAb-37 (chimeric anti-EpCAM antibody) (antibody, V domains shown) VH: EVQLQQSVAELVRPGASVKLSCTASGFNIKNTYMHWVKQRPEQGLEWIGRIAPANGNTKYDPKFQDKATITADSSSNTAYLHLSSLTSEDTAIYYCAFIYQLPYWGQGSTLTVSS VL: DIVLTQSPTSLAVSLGQRATISCRASESVDNYGISFMHWYQQKPGQPPKLLIYRASSLESGIPARFSGSGSRTDFTLTINPVESDDVATYYCQQSYKDPWTFGGATKLEIK | 
binds | binds | mAb-28 (chimeric anti-EpCAM antibody) (antibody, V domains shown) VH: QVQLQQSGAELARPGASVKVSCKASGYTFTSYGISWVKQRTGQGLEWIGEIYPTRDYTYYNENFKGKATLTADKSSTTAYMELRSLTSEDSAVYFCARDGPPFAYWGQGTLVTVSA VL: DIVMTQAAFSNPVTLGTSASISCRSSKSLLHSNGFTYLHWYLQKPGQSPQLLIYQMSSLASGVPDRFSSSGSGTDFTLRISRVEAEDVGVYYCAQNLELPRTFGGGTKLEIK | 

Further lines, the binder ahead of its results:

Binder | binding result [4] | binding result [5] | also measured
Bi-1 (3C-KIH EpCAM × CD47 scFv bispecific antibody) (bispecific antibody, human IgG1, Three-chain knob-into-hole format) not shown heavy: not shown VL: DIQMTQSPSSLSASLGERVSLTCRASQDIGNSLNWLQQKPDGTIKRLIYVTSRLDSGVPKRFSGSRSGSDYFFTISSLESEDFADYYCLQYASSPFTFGSGTKLEIK |  |  | binding result [1]: binds; binding result [2]: binds
mAb-1 (chimeric anti-EpCAM antibody) (antibody, V domains shown, also called EpCAM Mab1) VH: QVQLQQSGPELVKPGTSVKLSCRASGYTFTSYDINWVKQRPGQGLEWIGWIYPRDGSTKYNERFKGKATLTVDTSSSTAYMEFHTLTSEDSAVYFCARDPYYYGTIYGYFDVWGTGTTVTVSS VL: DIQMTQSPSSLSASLGERVSLTCRASQDIGNSLNWLQQKPDGTIKRLIYVTSRLDSGVPKRFSGSRSGSDYFFTISSLESEDFADYYCLQYASSPFTFGSGTKLEIK |  |  | EC50 [3]: < 20 nM; binding result [1]: no binding (tested: 100 nM); EC50 (read off the curve) [2]: ~0.1 nM
mAb-21 (chimeric anti-EpCAM antibody) (antibody, V domains shown) VH: DVQLQESGPGLVKPSQSLSLTCTVTGYSITSDFAWNWIRQFPGNKLEWVGYITYSGTTSYNPSLKSRISITRDTSKNQFFLQLSSVTTEDTATYYCARSFHFFAYGFAYWGQGTLVTVSA VL: not shown |  |  | EC50 [3]: < 20 nM
mAb-33 (chimeric anti-EpCAM antibody) (antibody, V domains shown) VH: EVLLQQSVADLVRPGASVKLSCTASGLNIKNTYIHWVKQMPEQGLEWIGRIGPANGNTKYAPKFQGKATITADTSSDTAYLQLSSLTSEDTAIYYCALAYYRIYWGQGTTLTVSS VL: DIVLTQSPASLAVSLGQRATISCRASESVDNSGISFMHWYQQKPGQSPKLLIYRASNLESGIPARFSGSGSRTDFTLTINPVETDDVATYYCQQSYENPWTFGGGTKLEIK | binds | binds | 
mAb-35 (chimeric anti-EpCAM antibody) (antibody, V domains shown) VH: EVQLQQSVAELVRPGASVKLSCTASGFNIKNTYMHWVKQRPEQGLEWIGRIAPANGNTKYAPKFQDKATITANTSSNTAYLQLGSLTSEDTAIYYCAFIYQLPYWGQGTTLTVSS VL: DIVLTQSPASLAVSLGQRATISCRASESVDNYGISFMHWFQQKPGQPPKLLIFRASSLESGIPARFSGSGSRTDFTLTINPVETDDVATYYCQQSYKDPWTFGGATKLEIK | binds | binds | 
mAb-2 (chimeric anti-EpCAM antibody) (antibody, V domains shown, also called EpCAM Mab2) VH: EVQLVESGGGLVQPKGSLKLSCAASGFTFNTYAMHWVRQAPGKGLEWVARIRSKTYNYATFYADSVKDRFTISRDDSQSMLYLQMNNLKTEDTAMFYCVTGSSYAMDYWGQGTSVTVSS VL: DILLTQSPAILSVSPGERVSFSCRASQSIGTSLHWYQQRTNGSPRLLIKYASESISGIPSRFSGSGSGTDFTLSINSVESEDIADYYCQQSNSWPYTFGGGTKLEIK |  |  | EC50 [3]: < 20 nM
mAb-36 (chimeric anti-EpCAM antibody) (antibody, V domains shown) VH: QVQVQQSGPELVKPGTSVKISCKTSGYTFTDYYITWVKQRPGQGLEWIGWIFPGRGISFYNENFKDKATLTVDKSSNTAFMLLSSLTSEDSAVYFCARWGGTWFAYWGQGTLITVSA VL: EIVLTQSPAITAAFLGQKVTITCSASSSVSYIHWYQQKSDTSPKPWIYEISKLASGVPARFSGSGSGTSYSLTISSMEAEDAAIYYCQQWNYPLITFGGGTKLEIK | binds | binds | 
mAb-8 (chimeric anti-EpCAM antibody) (antibody, V domains shown, also called EpCAM Mab8) VH: QVQLQQSGAELARPGASVQLSCKASGYTFTSYGISWLKQRAGQGLEWIGEIYPRSDNTYYNEKFKGKATLTADKSSSTAYMELRSLTSEDSAVYFCARRAGMWFAYWGQGTLVTVSA VL: EIVLTQSPAITAASLGQKVTITCSASSSVSDMHWYQQKSGTSPKPWIYEISKLASGVPTRFSGSGSGTSYSLTISSMEAEDAAIYYCQHWSYPLMTFGGGTKLEIK |  |  | EC50 [3]: < 20 nM
mAb-4 (chimeric anti-EpCAM antibody) (antibody, V domains shown) VH: QVQLQQPGAELVRPGTSVKLSCKASGYTFTSYWMHWIKQRPGQGLEWIGVIDPSNSYSNYNQKFKGRATLTVDTYSSTAYMQLSSLTSEDSAVYYCARPYNHGRDAMDYWGQGTSVTVSS VL: DVLLTQTPLSLSVSLGDQASISCRSSQSFVHINGNTYLEWFLQKPGLSPKLLIYKVSNRFSGVPDRFSGSGSGTDFTLKISRVEAEDLGIYYCFQGSHVPLTFGAGTKLELK | binds |  | 
VIR47 hIgG4-SPL (antibody, Anti-CD47 from OmniRat rats on a human IgG4 framework with S228P; also called VIR47 mAb; IgG4 form) heavy: not shown light: SYEMTQPPSVSVSPGQTARITCSGDALPKKYAYWYQQKSGQAPVLVIYEDNKRPSGIPERFSGSSSGTMATLTISGAQVEDEADYYCYSTDISGNHWVFGGGTELTVLGQPKAAPSVTLFPPSSEELQANKATLVCLISDFYPGAVTVAWKADSSPVKAGVETTTPSKQSNNKYAASSYLSLTPEQWKSHRSYSCQVTHEGSTVEKTVAPTECS |  |  | fold higher concentration required for RBC binding, against CD47 BMK-1 [6]: > 20 fold
mAb-39 (chimeric anti-EpCAM antibody) (antibody, V domains shown) VH: QIQLVQSGPELKKPGETVKISCKASGYTFTSYGVTWVKQAPGKGLKWMGWINTYSGVPTYADDFKGRFAFSLETSASTAYLQINNLKNEDTATYFCARSHSNYDFWGQGTTLTVSS VL: DIVMTQSQKFMSTTVGDRVSITCQASQNVGTDVGWYQQKPGQSPKLLIYSASNRYTGVPDRFTGSGSGTDFTLTISNMQSEDLADYFCQQYSSYPRTFGGGTKLEIK | binds | binds | 
VIR47.V7 hIgG1 (antibody, V domains shown, HC: F79Y, G82bS; LC: E103K (Kabat) against VIR47; already contained in the entries) VH: EVQLLESGGGLVQPGGSLRLSCAASGFTFSNFAMSWVRQAPGKGLEWVSTISASGGRTFYADSVKGRITISRDNSKNTLYLQMNSLRAEDTAVYYCAKEGSFGEGVDPWGQGTLVTVSS VL: SYEMTQPPSVSVSPGQTARITCSGDALPKKYAYWYQQKSGQAPVLVIYEDNKRPSGIPERFSGSSSGTMATLTISGAQVEDEADYYCYSTDISGNHWVFGGGTKLTVLG |  |  | fold higher concentration required for RBC binding, against CD47 BMK-1 [6]: > 20 fold

Source: patent publication US20230159663A1 (VIRTUOSO BINCO, published 2023)
